The data set deals with Escherichia coli TOP10. Description: shrunken log2 fold change of peptide-encoding DNA abundance (4.5 h post-induction vs induction); higher = less antimicrobial activity (less host growth inhibition). The note with it: time post-induction: 4.5 h; library: site-saturation at positions 5, 18, 19, 20.
As to RRIRGRPPRLPRPRPRPVLWPRP, the “shrunken log2 fold change” value was determined as 1.

As for RRIRVRPPRLPRPRPRPWRWPRP, the “shrunken log2 fold change” value came to 0.48.

As to RRIRSRPPRLPRPRPRPSDGPRP, the “shrunken log2 fold change” value was -0.124.

For the sequence RRIRWRPPRLPRPRPRPEIGPRP, the “shrunken log2 fold change” value is 0.0225.

For RRIRSRPPRLPRPRPRPWHEPRP, the “shrunken log2 fold change” value is -0.103.

Turning to RRIRWRPPRLPRPRPRPFSPPRP, the “shrunken log2 fold change” value was 0.0392.

Consider RRIRIRPPRLPRPRPRPQNTPRP, for which the “shrunken log2 fold change” value is -0.86.

Take RRIRNRPPRLPRPRPRPPLNPRP: the “shrunken log2 fold change” value worked out at 0.0798.

For RRIRARPPRLPRPRPRPHWYPRP, the “shrunken log2 fold change” value is 0.157.

In the case of RRIRGRPPRLPRPRPRPVLQPRP, the “shrunken log2 fold change” value was found to be 0.142.

On to RRIRKRPPRLPRPRPRPNESPRP, for which the “shrunken log2 fold change” value is -0.0703.

Turning to RRIRKRPPRLPRPRPRPDNSPRP, the “shrunken log2 fold change” value is -0.00848.

Regarding RRIRSRPPRLPRPRPRPEKRPRP, the “shrunken log2 fold change” value is -0.0813.

Regarding RRIRHRPPRLPRPRPRPVDIPRP, the “shrunken log2 fold change” value is -0.167.

For RRIRARPPRLPRPRPRPQFYPRP, the “shrunken log2 fold change” value is -0.183.

Consider RRIRERPPRLPRPRPRPDPRPRP, for which the “shrunken log2 fold change” value was determined as 0.768.

For the sequence RRIRNRPPRLPRPRPRPYQQPRP, the “shrunken log2 fold change” value was -0.388.

With RRIRARPPRLPRPRPRPGQTPRP, the “shrunken log2 fold change” value was 0.178.

Take RRIRVRPPRLPRPRPRPEQAPRP: the “shrunken log2 fold change” value came to 0.358.

For the sequence RRIRFRPPRLPRPRPRPVNRPRP, the “shrunken log2 fold change” value worked out at 0.188.

With RRIRQRPPRLPRPRPRPVVLPRP, the “shrunken log2 fold change” value is -0.227.

RRIRGRPPRLPRPRPRPGMMPRP: the “shrunken log2 fold change” value is -0.0297.

In the case of RRIRERPPRLPRPRPRPQWEPRP, the “shrunken log2 fold change” value was -0.0702.

With RRIRMRPPRLPRPRPRPSTEPRP, the “shrunken log2 fold change” value worked out at 1.63.

As for RRIRTRPPRLPRPRPRPNYNPRP, the “shrunken log2 fold change” value is -0.831.

For the sequence RRIRHRPPRLPRPRPRPWCYPRP, the “shrunken log2 fold change” value was -0.297.

In the case of RRIRNRPPRLPRPRPRPLITPRP, the “shrunken log2 fold change” value is -0.173.

For the sequence RRIRMRPPRLPRPRPRPVHSPRP, the “shrunken log2 fold change” value was found to be 0.0125.

For RRIRCRPPRLPRPRPRPCYAPRP, the “shrunken log2 fold change” value was -0.387.

Take RRIRVRPPRLPRPRPRPETDPRP: the “shrunken log2 fold change” value came to 0.023.

Consider RRIRHRPPRLPRPRPRPMYVPRP, for which the “shrunken log2 fold change” value came to 0.0136.

With RRIRWRPPRLPRPRPRPEDGPRP, the “shrunken log2 fold change” value turned out to be 0.173.

For RRIRQRPPRLPRPRPRPSCNPRP, the “shrunken log2 fold change” value was -0.683.

As for RRIRVRPPRLPRPRPRPVSAPRP, the “shrunken log2 fold change” value was -0.141.

As for RRIRCRPPRLPRPRPRPIETPRP, the “shrunken log2 fold change” value was -0.0366.

Turning to RRIRIRPPRLPRPRPRPVLQPRP, the “shrunken log2 fold change” value came out at 0.103.

Turning to RRIRNRPPRLPRPRPRPNKTPRP, the “shrunken log2 fold change” value was -0.0415.

For RRIRHRPPRLPRPRPRPTGYPRP, the “shrunken log2 fold change” value was -0.0185.

For RRIRGRPPRLPRPRPRPMPRPRP, the “shrunken log2 fold change” value was 1.03.

On to RRIRSRPPRLPRPRPRPTPSPRP, for which the “shrunken log2 fold change” value was determined as 0.376.

For RRIRGRPPRLPRPRPRPAALPRP, the “shrunken log2 fold change” value was 0.912.

For RRIRHRPPRLPRPRPRPRCSPRP, the “shrunken log2 fold change” value was -0.236.

In the case of RRIRERPPRLPRPRPRPQPYPRP, the “shrunken log2 fold change” value is -0.43.

Take RRIRGRPPRLPRPRPRPRAIPRP: the “shrunken log2 fold change” value amounted to 0.733.

Take RRIRHRPPRLPRPRPRPHKMPRP: the “shrunken log2 fold change” value is -0.266.

On to RRIRRRPPRLPRPRPRPQYGPRP, for which the “shrunken log2 fold change” value was -0.409.

On to RRIRVRPPRLPRPRPRPEYWPRP, for which the “shrunken log2 fold change” value was -0.161.

Take RRIRYRPPRLPRPRPRPKILPRP: the “shrunken log2 fold change” value was -0.247.

Consider RRIRRRPPRLPRPRPRPGCAPRP, for which the “shrunken log2 fold change” value was found to be 0.73.

In the case of RRIRWRPPRLPRPRPRPFVNPRP, the “shrunken log2 fold change” value is -0.483.

As to RRIRFRPPRLPRPRPRPIRFPRP, the “shrunken log2 fold change” value was -0.233.

Turning to RRIRCRPPRLPRPRPRPCTSPRP, the “shrunken log2 fold change” value is -0.647.

Take RRIRERPPRLPRPRPRPLPKPRP: the “shrunken log2 fold change” value came to 0.222.

Regarding RRIRVRPPRLPRPRPRPKHRPRP, the “shrunken log2 fold change” value came out at 0.356.

As for RRIRPRPPRLPRPRPRPPSHPRP, the “shrunken log2 fold change” value was found to be 0.0789.

In the case of RRIRDRPPRLPRPRPRPSYNPRP, the “shrunken log2 fold change” value was -0.285.

Take RRIRWRPPRLPRPRPRPACHPRP: the “shrunken log2 fold change” value amounted to 0.442.

Regarding RRIRPRPPRLPRPRPRPLDIPRP, the “shrunken log2 fold change” value is -0.408.

On to RRIRCRPPRLPRPRPRPNGCPRP, for which the “shrunken log2 fold change” value is -0.0116.

For the sequence RRIRGRPPRLPRPRPRPVHPPRP, the “shrunken log2 fold change” value is 2.04.

RRIRNRPPRLPRPRPRPFCTPRP: the “shrunken log2 fold change” value was -0.351.

Regarding RRIRIRPPRLPRPRPRPWAWPRP, the “shrunken log2 fold change” value is -0.00783.

Turning to RRIRRRPPRLPRPRPRPQSPPRP, the “shrunken log2 fold change” value came to 0.281.

Regarding RRIRLRPPRLPRPRPRPWMTPRP, the “shrunken log2 fold change” value was -0.0262.

Turning to RRIRTRPPRLPRPRPRPKNQPRP, the “shrunken log2 fold change” value was -0.274.

Turning to RRIRERPPRLPRPRPRPWEPPRP, the “shrunken log2 fold change” value is 0.073.

For the sequence RRIRHRPPRLPRPRPRPQYQPRP, the “shrunken log2 fold change” value was -0.496.

With RRIRTRPPRLPRPRPRPHCIPRP, the “shrunken log2 fold change” value was -0.489.

With RRIRHRPPRLPRPRPRPYFNPRP, the “shrunken log2 fold change” value was -0.882.

As for RRIRHRPPRLPRPRPRPMDIPRP, the “shrunken log2 fold change” value is -0.00136.

Take RRIRYRPPRLPRPRPRPCGEPRP: the “shrunken log2 fold change” value was -0.0504.

For RRIRPRPPRLPRPRPRPRDLPRP, the “shrunken log2 fold change” value was determined as 0.172.

With RRIRSRPPRLPRPRPRPYNVPRP, the “shrunken log2 fold change” value came to 0.00567.

For RRIRQRPPRLPRPRPRPYVMPRP, the “shrunken log2 fold change” value was -0.108.

As for RRIRFRPPRLPRPRPRPITWPRP, the “shrunken log2 fold change” value is -0.972.

As for RRIRWRPPRLPRPRPRPIYGPRP, the “shrunken log2 fold change” value is -0.0358.

With RRIRHRPPRLPRPRPRPQTGPRP, the “shrunken log2 fold change” value was -0.169.

For RRIRMRPPRLPRPRPRPYHRPRP, the “shrunken log2 fold change” value is -0.141.

RRIRHRPPRLPRPRPRPLVVPRP: the “shrunken log2 fold change” value was -0.0489.

Regarding RRIRWRPPRLPRPRPRPRLIPRP, the “shrunken log2 fold change” value turned out to be 0.55.

Consider RRIRNRPPRLPRPRPRPTYFPRP, for which the “shrunken log2 fold change” value was -0.147.

For RRIRMRPPRLPRPRPRPRGWPRP, the “shrunken log2 fold change” value amounted to 1.34.

RRIRDRPPRLPRPRPRPLYRPRP: the “shrunken log2 fold change” value is -0.163.

Take RRIRIRPPRLPRPRPRPSTPPRP: the “shrunken log2 fold change” value is -0.373.

In the case of RRIRRRPPRLPRPRPRPFSFPRP, the “shrunken log2 fold change” value is -0.0665.

As for RRIRPRPPRLPRPRPRPEAFPRP, the “shrunken log2 fold change” value was -0.0543.

In the case of RRIRDRPPRLPRPRPRPQNCPRP, the “shrunken log2 fold change” value came to 0.00875.

In the case of RRIRDRPPRLPRPRPRPADPPRP, the “shrunken log2 fold change” value is -0.155.

For the sequence RRIRYRPPRLPRPRPRPTLQPRP, the “shrunken log2 fold change” value was determined as 0.201.

RRIRYRPPRLPRPRPRPYYCPRP: the “shrunken log2 fold change” value is 0.00489.

In the case of RRIRCRPPRLPRPRPRPEIHPRP, the “shrunken log2 fold change” value is -0.217.

Consider RRIRCRPPRLPRPRPRPAVWPRP, for which the “shrunken log2 fold change” value amounted to 0.617.

For RRIRFRPPRLPRPRPRPDLGPRP, the “shrunken log2 fold change” value turned out to be 0.106.

Consider RRIRDRPPRLPRPRPRPGMMPRP, for which the “shrunken log2 fold change” value was 0.0672.

Take RRIRHRPPRLPRPRPRPYVWPRP: the “shrunken log2 fold change” value was found to be 0.0405.

As to RRIRKRPPRLPRPRPRPTMNPRP, the “shrunken log2 fold change” value was -0.00264.

As for RRIRLRPPRLPRPRPRPKYAPRP, the “shrunken log2 fold change” value was 0.0149.

In the case of RRIRERPPRLPRPRPRPAPWPRP, the “shrunken log2 fold change” value was 0.203.

As for RRIRARPPRLPRPRPRPCYKPRP, the “shrunken log2 fold change” value was -0.0942.

For RRIRPRPPRLPRPRPRPCVEPRP, the “shrunken log2 fold change” value worked out at 0.021.

Turning to RRIRNRPPRLPRPRPRPPQLPRP, the “shrunken log2 fold change” value is 0.131.

For the sequence RRIRNRPPRLPRPRPRPACGPRP, the “shrunken log2 fold change” value was found to be 0.547.

For the sequence RRIRTRPPRLPRPRPRPPCDPRP, the “shrunken log2 fold change” value amounted to 0.0499.

Regarding RRIRNRPPRLPRPRPRPSQRPRP, the “shrunken log2 fold change” value is -0.0448.

With RRIRWRPPRLPRPRPRPRIGPRP, the “shrunken log2 fold change” value turned out to be 0.138.

As for RRIRNRPPRLPRPRPRPRAHPRP, the “shrunken log2 fold change” value was -0.0951.

On to RRIRKRPPRLPRPRPRPKFKPRP, for which the “shrunken log2 fold change” value was 0.241.

Take RRIRERPPRLPRPRPRPTIEPRP: the “shrunken log2 fold change” value was -0.0577.

On to RRIRNRPPRLPRPRPRPNPWPRP, for which the “shrunken log2 fold change” value was found to be 0.107.

Regarding RRIRLRPPRLPRPRPRPCSPPRP, the “shrunken log2 fold change” value was -0.0527.

Take RRIRHRPPRLPRPRPRPNFYPRP: the “shrunken log2 fold change” value is -0.515.

On to RRIRFRPPRLPRPRPRPKRAPRP, for which the “shrunken log2 fold change” value was 0.244.

On to RRIRERPPRLPRPRPRPPKQPRP, for which the “shrunken log2 fold change” value worked out at 0.0175.

With RRIRYRPPRLPRPRPRPHQAPRP, the “shrunken log2 fold change” value is -0.0296.

On to RRIRMRPPRLPRPRPRPTYVPRP, for which the “shrunken log2 fold change” value was -0.197.

For RRIRYRPPRLPRPRPRPTTCPRP, the “shrunken log2 fold change” value is -0.923.

Consider RRIRKRPPRLPRPRPRPDLDPRP, for which the “shrunken log2 fold change” value came to 0.109.

On to RRIRLRPPRLPRPRPRPANIPRP, for which the “shrunken log2 fold change” value is -0.501.

As to RRIRYRPPRLPRPRPRPHEMPRP, the “shrunken log2 fold change” value came to 2.66.

Consider RRIRERPPRLPRPRPRPMNIPRP, for which the “shrunken log2 fold change” value was -0.847.

Take RRIRIRPPRLPRPRPRPAYRPRP: the “shrunken log2 fold change” value was -0.611.

On to RRIRCRPPRLPRPRPRPAKSPRP, for which the “shrunken log2 fold change” value amounted to 0.448.

For the sequence RRIRWRPPRLPRPRPRPLNVPRP, the “shrunken log2 fold change” value is -0.0654.

For the sequence RRIRVRPPRLPRPRPRPVTNPRP, the “shrunken log2 fold change” value was -0.68.

On to RRIRMRPPRLPRPRPRPKLKPRP, for which the “shrunken log2 fold change” value worked out at 2.65.

The values above are taken from the supplement of paper PMC9112550, “Optimization of the antimicrobial peptide Bac7 by deep mutational scanning” (BMC Biology, 2022).
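Note: peptides expressed intracellularly from a pBAD plasmid library in pooled LB shake-flask culture, induced with 0.3% L-arabinose, DNA abundance read by NGS, three biological replicates, DESeq2 with apeglm shrinkage.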
